Measurements taken from patent US20150166611A1.

Tests used:
[1] = target: wild-type HIV-1NL4-3 Env (unlabeled gp120 protomers of the trimer on virions) (HIV-1 NL4-3); experiment: intermolecular smFRET; CD4 bound to an unlabeled gp120 of the trimer, donor Cy3 on the neighbouring labelled gp120
[2] = target: HIV-1 Env (NL4-3) labeled with Cy3 at the LV4-2-A1 loop insertion, on virions (HIV-1 NL4-3); experiment: intermolecular smFRET; high-FRET state assigned to CD4 bound to the Cy3-labelled gp120

Cy5-labeled soluble CD4(C92) (D1-D2) (from UniProt P01730 26-208) (receptor)
FRET state (intermediate) (FRET efficiency) [1]: 0.3 | FRET state (low) (FRET efficiency) [1]: 0.2 | FRET state (high) (FRET efficiency) [2]: 0.85
